The values below come from the supplement of paper PMC11865577.

Experiment in all cases: pull-down binding Z-score (relative to library population); higher = stronger binding
For data set [1], the system named is G-clamp-N3 (biotin conjugate). The conditions noted are these: RNA library: Library-1 (pre-miRNA loops + repeats). A digest of the protocol: (§1)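 A heat-folded, dye-end-labelled (Cy5 or Cy3) RNA library (1 μg, phosphate/NaCl/KCl buffer) was exposed for 60 min at 25 °C to streptavidin beads holding 100 pmol of biotin-conjugated small molecule. RNA retained on the beads was eluted in hot SDS and hybridised to a DNA barcode microarray for 20 h at 55.5 °C. Binding scores were Z-scores against the library mean and standard deviation, calculated after subtracting beads alone and taking trimmed means of replicate probes.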

The subject of the next data set is TO-N3 (biotin conjugate). The conditions noted are these: RNA library: Library-2. The procedure, abridged:
as §1

Data set [2] deals with TO-3-N3-2 (biotin conjugate). The conditions noted are these: RNA library: Library-2. A digest of the protocol: as §1
Data set [3] has as its system TO-3-N3 (biotin conjugate). The conditions noted are these: RNA library: Library-2. The procedure, abridged:
as §1

The subject of data set [4] is TO-N3-2 (biotin conjugate). The conditions noted are these: RNA library: Library-2. A digest of the protocol: as §1

Take GCUGCAGAUCUUUGUCUAAGCAGC [hsa-mir-4498]: the “pull-down binding Z-score” value was -0.879 in data set [1]; -0.555 with TO-N3 (biotin conjugate); -0.207 in data set [2]; -0.346 in data set [3]; -0.274 in data set [4].

As to CCGACUCGGGCUCUGGAGCAGUC [hsa-mir-152], the “pull-down binding Z-score” value in data set [1] was 0.748; in the data set on TO-N3 (biotin conjugate), 1.09; in data set [2], 0.274; in data set [3] it was 0.836; in data set [4] it was 0.692.

“CCAUGGUGUGCUCUGAUCCCCCUGUGG [hsa-mir-6848]”: the “pull-down binding Z-score” value in data set [1] was -0.373; in the data set on TO-N3 (biotin conjugate) it was 0.592; in data set [2], 0.0413; in data set [3], 0.35; in data set [4], 0.49.

With “UCACAGGGCUCAGGGAAUGUGUCUGCACCUGUGA [hsa-mir-587]”, the “pull-down binding Z-score” value stood at 0.296 in data set [1]; 0.469 in the data set with TO-N3 (biotin conjugate); 0.0576 in data set [2]; 0.431 in data set [3]; 0.206 in data set [4].

On to “AGCCUCCAAACCUGUAGACAGGGUCAUGCAGUACUAGGGGCGAG [hsa-mir-4478]”, for which the “pull-down binding Z-score” value is -0.233 in data set [1]; 0.546 with TO-N3 (biotin conjugate); 0.175 in data set [2]; -0.0187 in data set [3]; 0.966 in data set [4].

Consider UCUUCCCAGAGUCAGGAAAA [hsa-mir-320c-1], for which the “pull-down binding Z-score” value was -1.1 in data set [1]; -0.0041 in the data set on TO-N3 (biotin conjugate); -0.0416 in data set [2]; -0.17 in data set [3]; 0.191 in data set [4].

On to GAGCCCUGAGGGGCUC [hsa-mir-6087], for which the “pull-down binding Z-score” value is 1.46 in data set [1]; 0.283 in the data set with TO-N3 (biotin conjugate); -0.303 in data set [2]; 0.542 in data set [3]; -0.191 in data set [4].

For the sequence “AUGUUCGCUUCAUUCAUCAUGAAUAA [hsa-mir-655]”, the “pull-down binding Z-score” value in data set [1] is -0.248; in the data set on TO-N3 (biotin conjugate) it was 0.385; in data set [2] it was 0.089; in data set [3], 0.297; in data set [4] it was -0.299.

Consider “GUGAGAUGUUCAUACAAUCCCUCAC [hsa-mir-216a]”, for which the “pull-down binding Z-score” value was -1.01 in data set [1]; -0.852 in the data set with TO-N3 (biotin conjugate); -0.438 in data set [2]; -0.788 in data set [3]; -0.17 in data set [4].

For the sequence UGGUUUCACUA [hsa-mir-3713], the “pull-down binding Z-score” value is -1.64 in data set [1]; 0.378 in the data set on TO-N3 (biotin conjugate); -0.427 in data set [2]; 0.624 in data set [3]; -0.526 in data set [4].

Regarding GGUGCAAAGCCUGCCCGCCCC [hsa-mir-5090], the “pull-down binding Z-score” value is -0.81 in data set [1]; 0.254 in the data set with TO-N3 (biotin conjugate); -0.136 in data set [2]; -0.134 in data set [3]; 1.09 in data set [4].

In the case of “UGGAGGCUGCAGUGAGCCGAGAUCGAGCCACUGUACUCCA [hsa-mir-1273e]”, the “pull-down binding Z-score” value in data set [1] is 0.0244; in the data set on TO-N3 (biotin conjugate), 1.14; in data set [2] it was -0.0556; in data set [3], 0.259; in data set [4], 1.09.

As for “UGCUUCAGUUUCACUCCAAGCA [hsa-mir-4771-2_4771-1]”, the “pull-down binding Z-score” value in data set [1] is -0.932; in the data set on TO-N3 (biotin conjugate), -0.204; in data set [2], -0.126; in data set [3], -0.0351; in data set [4] it was -0.141.

For “UCCUAGGCGGGUCGCUGCGGUACCUCCCUCCUGUCUGUGGCGGUGGGAUCCCGUGGCCGUGUUUUCCUGGUG [hsa-mir-663b]”, the “pull-down binding Z-score” value in data set [1] was -0.826; with TO-N3 (biotin conjugate), 0.683; in data set [2], -0.0831; in data set [3], -0.114; in data set [4], 1.55.

As to CAGGGCGGUGCGGCAGCCGCCACC [hsa-mir-3621], the “pull-down binding Z-score” value in data set [1] was -0.214; in the data set with TO-N3 (biotin conjugate), 1.07; in data set [2], 0.241; in data set [3], 0.771; in data set [4] it was 1.24.

Regarding “GCUCAAGCCACAGCAGGGUGUUUAGCGCUCUUCAGUGGCUCCAG [hsa-mir-1203]”, the “pull-down binding Z-score” value in data set [1] is -1.23; with TO-N3 (biotin conjugate), 0.563; in data set [2] it was -0.102; in data set [3], -0.00832; in data set [4] it was 1.14.

For UGCCAUUACUCUCAGUGGCA [hsa-mir-548y], the “pull-down binding Z-score” value was -0.0483 in data set [1]; -1.16 with TO-N3 (biotin conjugate); -0.564 in data set [2]; -0.836 in data set [3]; -1.01 in data set [4].

For CUGUGAAUCCAAGAUCCACA [hsa-mir-4527], the “pull-down binding Z-score” value in data set [1] is -1.57; in the data set on TO-N3 (biotin conjugate), -0.39; in data set [2], -0.489; in data set [3], -0.439; in data set [4], -0.241.
